Results taken from patent publication US20230078601A1 (CLEVELAND CLINIC FOUNDATION, published 2023).

What was measured:
[1] = target: T1, Native p17-33; experiment: SPOT peptide array of membrane-bound 17-mer peptides, 4D12G1, chemiluminescence
T1 construct: also called AMHR2-ED 17-33 17-mer peptide
T1 peptide: GSTKTLGELLDTGTELP
Method: on cellulose membranes (JPT Peptide Technologies, Berlin, Germany), treated overnight with blocking buffer (Thermo Fisher), followed by treatment with the 4D12G1 mAb at 1.0 μg/ml for 3 hours at room temperature, followed by three washes with PBS containing 0.01% Tween-20 (Bio-Rad). The membranes were then treated with a 1:10,000 dilution of an HRP-conjugated rabbit anti-mouse IgG (MilliporeSigma) followed by three washes with PBS containing 0.01% Tween-20 (Bio-Rad). Bound antibody was detected using the HyGLO chemiluminescence system (Thomas Scientific).
An overlapping series of 16-mer peptides spanning the entire 132 amino acid sequence of human AMHR2-ED (FIG. 3A) with moving single amino acid shifts were plated for direct ELISA testing using the 4D12G1 mAb as primary antibody. […] To determine amino acids recognized by the 4D12G1 mAb, an overlapping series of peptides spanning the immunoreactive sequence comprising AMHR2-ED 13-30 were synthesized with alanine substitutions at each N-terminal residue or with glycine substitutions for any native N-terminal alanine. These peptides were used in competitive ELISAs to determine which residues inhibit binding of the 4D12G1 mAb with solid phase rhAMHR2-ED. […] Bound antibody was detected by chemiluminescence. […]

[2] = target: T2, 11-26; experiment: direct ELISA on plated overlapping 16-mer peptides of AMHR2-ED, 4D12G1 as primary antibody
T2 construct: overlapping 16-mer of human AMHR2-ED; also called p11-26; AMHR2-ED 11-26 16-mer peptide
T2 peptide: EAPGVRGSTKTLGELL
Method: (§1) Competitive ELISAs were used to determine the AMHR2-ED sequence recognized by the 4D12G1 mAb. A set of overlapping 16-mer peptides spanning the entire 132 amino acid sequence of human AMHR2-ED was generated. Each peptide shifted by one amino acid and all cysteine residues were replaced by serine to avoid disulfide bond formation (Thermo Fisher). Individual 16-mer peptides were plated in solid phase in microtiter wells, increasing concentrations of each 16-mer peptide were incubated with the 4D12G1 mAb in liquid phase, and ELISAs were performed as described above. The binding site of the 4D12G1 mAb was confirmed by competitive ELISA using overlapping peptides containing alanine substitutions for each amino acid spanning the immunoreactive region of AMEIR2-ED. The substituted peptides were used in liquid phase with the 4D12G1 mAb to determine binding inhibition to rhAMHR2-ED in solid phase. The AMHR2-ED binding sequence of the 4D12G1 mAb and the critical AMHR2-ED residues for such binding were confirmed by SPOT peptide arrays. Peptides spanning the AMHR2-ED 9-40 immunoreactive region and ranging from 4-16-mers in length were synthesized >90% pure on cellulose membranes (JPT Peptide Technologies, Berlin, Germany), treated overnight with blocking buffer (Thermo Fisher), followed by treatment with the 4D12G1 mAb at 1.0 μg/ml for 3 hours at room temperature, followed by three washes with PBS containing 0.01% Tween-20 (Bio-Rad). The membranes were then treated with a 1:10,000 dilution of an HRP-conjugated rabbit anti-mouse IgG (MilliporeSigma) followed by three washes with PBS containing 0.01% Tween-20 (Bio-Rad). Bound antibody was detected using the HyGLO chemiluminescence system (Thomas Scientific).
(§2) An overlapping series of 16-mer peptides spanning the entire 132 amino acid sequence of human AMHR2-ED (FIG. 3A) with moving single amino acid shifts were plated for direct ELISA testing using the 4D12G1 mAb as primary antibody. […] To determine amino acids recognized by the 4D12G1 mAb, an overlapping series of peptides spanning the immunoreactive sequence comprising AMHR2-ED 13-30 were synthesized with alanine substitutions at each N-terminal residue or with glycine substitutions for any native N-terminal alanine.

[3] = target: T3, 12-27; experiment: as above
T3 construct: overlapping 16-mer of human AMHR2-ED; also called p12-27; AMHR2-ED 12-27 16-mer peptide
T3 peptide: APGVRGSTKTLGELLD
Method: as §1, §2

[4] = target: T4, 13-28; experiment: as above
T4 construct: overlapping 16-mer of human AMHR2-ED; also called p13-28; AMHR2-ED 13-28 16-mer peptide
T4 peptide: PGVRGSTKTLGELLDT
Method: as §1, §2

[5] = target: T5, 14-29; experiment: as above
T5 construct: overlapping 16-mer of human AMHR2-ED; also called p14-29; AMHR2-ED 14-29 16-mer peptide
T5 peptide: GVRGSTKTLGELLDTG
Method: as §1, §2

[6] = target: T6, 15-30; experiment: as above
T6 construct: overlapping 16-mer of human AMHR2-ED; also called p15-30; AMHR2-ED 15-30 16-mer peptide
T6 peptide: VRGSTKTLGELLDTGT
Method: as §1, §2

[7] = target: T7, 16-31; experiment: as above
T7 construct: overlapping 16-mer of human AMHR2-ED; also called p16-31; AMHR2-ED 16-31 16-mer peptide
T7 peptide: RGSTKTLGELLDTGTE
Method: as §1, §2

[8] = target: T8, 17-32; experiment: as above
T8 construct: overlapping 16-mer of human AMHR2-ED; also called p17-32; AMHR2-ED 17-32 16-mer peptide
T8 peptide: GSTKTLGELLDTGTEL
Method: as §1, §2

Measured: binding result

B1: 4D12G1 mAb (antibody, IgG1, V domains shown)
VH: DVKLVESGGGLVKLGGSLKLSCAASGFTFSRYFMSWVRQTPEKRLELVAAINSDGGRTYYPDTVKGRFTISRDNAKNTLYLQMSSLKSEDTALYYCTRHIYSYYEDYFDYWGQGTTLTVSS
VL: DVVMTQTPLSLPVSLGDQASISCRSSQSLVHSNGNTYLHWYLQKPGQSPKLLIYKVSKRFSGVPDRFSGSGSGTDFTLKISRVEAEDLGVYFCSQSTHVYTFGGGTKLEIK
notes: also called 4D12G1 IgG1 mAb
binds: all assays above
